Literature values, collected in paper PMC12525431, “Hsp70 Peptides Induce TREM-1-Dependent and TREM-1-Independent Activation of Cytotoxic Lymphocytes” (International Journal of Molecular Sciences, 2025).

Molecular target: T1, TREM-1 (Homo sapiens, UniProt Q9NP99)
T1 construct: causes dissociation of the TREM-1 exocellular domain; made in house
Conditions: ref [30],[31],[32],[33]

T1 sequence (Q9NP99 21-205 limits assumed): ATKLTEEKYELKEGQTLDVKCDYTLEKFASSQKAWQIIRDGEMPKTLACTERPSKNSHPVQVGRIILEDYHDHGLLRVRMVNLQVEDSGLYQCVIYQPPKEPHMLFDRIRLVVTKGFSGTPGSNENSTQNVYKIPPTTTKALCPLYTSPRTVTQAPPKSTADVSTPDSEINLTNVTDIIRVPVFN

B1: eCIRP: RNA-binding protein (eCIRP), TREM-1 ligand (protein, UniProt Q14011 1-172, looked up)
Cold-inducible RNA-binding …: MASDEGKLFVGGLSFDTNEQSLEQVFSKYGQISEVVVVKDRETQRSRGFGFVTFENIDDAKDAMMAMNGKSVDGRQIRVDQAGKSSDNRSRGYRGGSAGGRGFFRGGRGRGRGFSRGGGDRGYGGNRFESRSGGYGGSRDYYSSRSQSGGYSDRSSGGSYRDSYDSYATHNE
In the case of B1, the TREM-1 ligand is given as “TREM-1 ligands”.
